No end group written: not given here.
T1: procaspase 1 (Homo sapiens, UniProt P29466)
T1 construct: purchased Alexis Biochemicals 201-056
T1 sequence (P29466 1-404): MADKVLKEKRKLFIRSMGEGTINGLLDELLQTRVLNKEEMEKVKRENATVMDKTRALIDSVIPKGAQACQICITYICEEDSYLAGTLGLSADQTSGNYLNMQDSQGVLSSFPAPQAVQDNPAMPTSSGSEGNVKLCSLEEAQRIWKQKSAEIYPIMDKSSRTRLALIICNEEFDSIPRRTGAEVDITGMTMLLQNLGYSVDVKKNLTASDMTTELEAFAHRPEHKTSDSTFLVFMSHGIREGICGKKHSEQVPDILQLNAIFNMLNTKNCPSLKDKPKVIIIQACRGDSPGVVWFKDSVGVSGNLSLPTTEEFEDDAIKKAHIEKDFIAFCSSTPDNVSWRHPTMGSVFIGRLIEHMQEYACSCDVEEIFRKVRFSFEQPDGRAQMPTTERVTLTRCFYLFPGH


Columns and labels:
[1] = system: hepatic stellate cells; test: Apoptosis of activated stellate cells transfected with C/EBPβ constructs, annexin-V-PE binding; assay type: cell-based, mouse; details: for Effect of expressed construct on apoptosis / survival of stellate cells: transfected cells on collagen type I matrix; for Rescue from induced apoptosis by expressed construct: apoptosis induced by dominant negative MEKK1, IκBα or RSK mutants or by lactacystin
Text: FIG. 1 provides data showing that phosphorylation of C/EBPβ on Thr^217 is required for hepatic stellate cell survival. Panel A provides phosphopeptide maps of in vivo labeled endogenous C/EBPβ in day-4 quiescent and activated primary mouse stellate cells cultured from the time of isolation on EHS or collagen type I matrix, respectively. The arrow indicates the peptide containing Phospho-Thr^217 in activated cells. […] Panel B provides phosphopeptide maps of in vitro labeled C/EPBβ. Active p90RSK phosphorylated C/EPBβ, but not C/EBPβ-Ala^217 on Thr^217 in vitro (arrowheads). Panel C provides results for cells cultured on collagen type I transfected with MSV-C/EBPβ antisense (AS), MSV-C/EBPβ sense (S), or MSV-C/EBPβ-Ala^217 together with CMV-GFP (green fluorescent protein) and p90RSK (1 μg each), as indicated in the Figure. Four hours after transfection, annexin-V-PE binding to plasma membranes was determined. The values presented are the percentage of transfected cells (green) that were annexin-V-PE (+) (red) (P<0.05 for C/EBPβ AS, and C/EBPβ-Ala^217). Panel D provides results for cells transfected as in […] with vectors expressing dominant negative mutants for MEKK1, IκBα, or p90RSK, or treated with the proteasome inhibitor lactacystin (10 μM) (closed bars), and co-transfected with MSV-C/EBPβ-Glu^217 (1 μg each) (open bars) as indicated. Annexin-V-PE binding was determined as described for Panel A (P<0.05 for C/EBPβ-Glu^217). Panel E provides results for cells transfected as described for Panel C, with a dominant-negative p90RSK, treated with FAS (100 nM for 6 hours) or cultured in a serum-free medium for 6 hours (closed bars), and co-transfected with MSV-C/EBPβ-Glu^217 (1 μg each) (open bars), as indicated. Cell death was determined by nuclear staining with Hoechst 33342 (P<0.05 for C/EBPβ-Glu^217 in RSK mut and FAS-treated cells).
FIG. 4 provides results showing that C/EBPβ PThr^217 associates with procaspases 1 and 8, and inhibits their activation. Panel A provides schematic representations of C/EBPβ peptides. The activation (dotted bars), DNA binding (solid bars) and dimerization (hatched bars) domains are shown. […] Panel C provides results showing that C/EBPβ and procaspase 8 were detected in activated stellate cells isolated from C/EBPβ^+/+ mice by confocal microscopy using specific antibodies (Santa Cruz Biotechnology). Control C/EBPβ^−/− stellate cells were negative for C/EBPβ, positive for procaspase 8, and apoptotic. Panel D provides immunoblot results for MSV vectors expressing C/EBPβ-HA (hemagglutinin protein) peptides (0.3 μg) transfected into activated stellate cells. The expressed peptides were immunoprecipitated with anti-HA antibodies. C/EBPβ-PThr^217 was detected using a specific antibody, only in cells expressing wild-type C/EBPβ. […] RSK was associated with all C/EBPβ peptides. Neither C/EBPβ nor procaspases 1 and 8 were detected in C/EBPβ immunoprecipitates from cells expressing C/EBPβ AS. Reciprocal immunoprecipitations of procaspases and RSK confirmed these associations.
Adult male Sprague-Dawley rats and adult male C/EBPβ^+/+ and C/EBPβ^−/− (Screpanti et al., supra; and Buck et al., (1999), supra), C/EBPβ-Ala^217 and C/EBPβ-Asp^105 transgenic mice were used for the isolation of primary hepatic stellate cells (Houglum et al., supra). Primary hepatic stellate cells were isolated by collagenase/pronase perfusion and purified by a single step density Nycodenz gradient (Accurate Chemical & Scientific) as known in the art (See, Lee et al., (1995), supra). Cells were plated on type I collagen matrix (Becton Dickinson) or EHS matrix (Matrigel, Collaborative Biomedical Products). Cells were cultured with 10% fetal calf serum/10% fetal bovine serum and transfected with lipofectamine (GIBCO) for DNA vectors or with the Chariot reagent (Active Motif) for peptides (10 μM) as known in the art (See, Houglum et al., supra; and Morris et al., J. Biol. Chem., 274:24942-24946 (1999)). […]

[2] = biological target: T1, procaspase 1; test: Co-immunoprecipitation of purified recombinant procaspase 1 with recombinant C/EBPβ peptides; assay type: binding; details: peptides 200 μM, procaspase 1 0.6 U, quantitated by densitometry
Protocol: (§1) FIG. 5 provides results showing the direct association of C/EBPβ-Glu^217 with procaspases 1 and 8. […] Enzyme activity was measured in the absence (control) or presence of C/EBPβ peptides (200 μM) for 2 h, using a procaspases 1 (1U) (not shown) and 8 (0.2 μg) activity assay. Values are presented as the mean±one half the range of duplicates. Panel C provides results for cells cultured on a collagen type I matrix and incubated with the indicated cell permeant, purified synthetic N-acetyl, C-aldehyde C/EBPβ tetra-peptides (10 μM) or with recombinant C/EBPβ-HA peptides as indicated, together with the Chariot reagent (Active Motif) for 4 h. Control cells were incubated without peptides (P<0.05 for all peptides containing Ala^217).
(§2) Purified recombinant C/EBPβ peptides, expressed as known in the art (See, Descombes et al., supra; and Buck et al. (1994), supra), and purified synthetic N-acetyl, C-aldehyde tetrapeptides (200 μM) (American Peptide Company) were assayed for their ability to inhibit the activity of purified human recombinant caspases 1 (catalogue # 201-056) and 8 (catalogue # 201-041-C005) (Alexis Biochemicals). The sequence of caspase 8 includes Ser217 through Asp479 cloned into an expression vector containing a 21 amino acid linker at the N-terminus. Thus, the prodomain (first 220 amino acids) is essentially missing. The fragment is cleaved at Asp385 and the active caspases are essentially identical to those identified in apoptotic cells (Stennicke and Salvesen, Meth. Enzymol., 322:91-100 (1997)). Caspase activity was determined by the release of the p-nitroaniline colorimetric (Alexis Biochemicals) substrate for caspase 1 (catalogue # 260-026) or 8 (catalogue # 260-045) within the linear part of the kinetic assay (Thornberry et al. (1997), supra; Stennicke and Salvesen, supra). Caspase 1 and 8 activity in cells was performed with colorimetric kits (catalogues # 850-211-K and 850-221-K) as described by the manufacturer (Alexis) (See also, Thornberry et al. (1997), supra). The caspase 8 inhibitor IETD was from Calbiochem (Catalogue # 218773).
To delineate the role of C/EBPβ on the activation of procaspases 1 and 8, the self-activation of recombinant procaspases 1 and 8 was induced in vitro (Wilson et al., supra; Margolin et al., supra; and Earnshaw et al., supra), and the effect of purified recombinant C/EBPβ peptides, produced as described previously (Descombes et al., supra; and Buck et al., (1994), supra) on this process was determined. Consistent with the in vivo results described above, C/EBPβ-HA-Glu^217 and C/EBPβ 216-253-HA-Glu^217, but not C/EBPβ-HA-Ala^217, peptides associated with procaspases 1 and 8 (See, FIG. 5, Panel A). […]

[3] = biological target: procaspase 8 (Homo sapiens, UniProt Q14790); test: Co-immunoprecipitation of purified recombinant procaspase 8 with recombinant C/EBPβ peptides; assay type: binding; design: 21 amino acid linker (vector-derived) (N); purchased Alexis Biochemicals 201-041-C005; details: peptides 200 μM, procaspase 8 0.12 μg, quantitated by densitometry
Chain of procaspase 8 (Q14790 217-479): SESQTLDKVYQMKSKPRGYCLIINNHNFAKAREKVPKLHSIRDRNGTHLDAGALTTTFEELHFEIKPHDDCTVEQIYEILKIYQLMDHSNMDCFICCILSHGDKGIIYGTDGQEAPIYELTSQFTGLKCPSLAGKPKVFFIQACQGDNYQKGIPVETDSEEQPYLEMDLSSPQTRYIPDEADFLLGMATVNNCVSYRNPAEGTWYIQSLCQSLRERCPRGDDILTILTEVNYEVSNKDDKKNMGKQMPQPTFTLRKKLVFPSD
Protocol: as §1
as §2, with “The fragment is cleaved at Asp385 and the active caspases are essentially identical to those identified in apoptotic cells (Stennicke and Salvesen, Meth. Enzymol., 322:91-100 (1997)).” left out, “Caspase 1 and 8 activity in cells was performed with colorimetric kits (catalogues # 850-211-K and 850-221-K) as described by the manufacturer (Alexis) (See also, Thornberry et al. (1997), supra). The caspase 8 inhibitor IETD was from Calbiochem (Catalogue # 218773).” left out
To delineate the role of C/EBPβ on the activation of procaspases 1 and 8, the self-activation of recombinant procaspases 1 and 8 was induced in vitro (Wilson et al., supra; Margolin et al., supra; and Earnshaw et al., supra), and the effect of purified recombinant C/EBPβ peptides, produced as described previously (Descombes et al., supra; and Buck et al., (1994), supra) on this process was determined. […]

Molecule | Effect of expressed construct on apoptosis / survival of stellate cells [1] | Co-immunoprecipitation of procaspase 1, fold more than the Ala^217 peptides [2] | Co-immunoprecipitation of procaspase 8, fold more than the Ala^217 peptides [3] | Rescue from induced apoptosis by expressed construct [1]
C/EBPβ 216-253-Ala^217: C/EBPβ fragment 216-253 with Ala^217, lacking the activation and dimerization domains (KAVDKLSDEYKMRRERNNIAVRKSRDKAKMRNLETQHK; left off: small tags and cut ends) | induced apoptosis |  |  | 
C/EBPβ216-253-HA-Glu^217: purified recombinant HA tagged C/EBPβ 216-253 peptide with Glu^217 (KEVDKLSDEYKMRRERNNIAVRKSRDKAKMRNLETQHK; also: HA tag (place not given here)) |  | about 7 fold | ~12 fold | 
C/EBPβ 216-253-Glu^217: C/EBPβ fragment 216-253 with Glu^217, lacking the activation and dimerization domains (KEVDKLSDEYKMRRERNNIAVRKSRDKAKMRNLETQHK; left off: small tags and cut ends) |  | 7 fold | 12 fold | sufficient to rescue cells from apoptosis
rC/EBPβ-Ala^105: modified rat C/EBPβ with mutation of Ser^105 to Ala (SEQ ID NO:14), nonphosphorylatable mutant (protein, listed as Rattus norvegicus) MHRLLAWDAACLPPPPAAFRPMEVANFYYEPDCLAYGAKAARAAPRAPAAEPAIGEHERAIDFSPYLEPLAPAAADFAAPAPAHHDFLSDLFADDYGAKPSKKPADYGYVSLGRAGAKAAPPACFPPPPPAALKAEPGFEPADCKRADDAPAMAAGFPFALRAYLGYQATPSGSSGSLSTSSSSSPPGTPSPADAKAAPAACFAGPPAAPAKAKAKKAVDKLSDEYKMRRERNNIAVRKSRDKAKMRNLETQHKVLELTAENERLQKKVEQLSRELSTLRNLFKQLPEPLLASAGHC | induced apoptosis |  |  | 
rC/EBPβ-Asp^105: modified rat C/EBPβ with mutation of Ser^105 to aspartic acid (SEQ ID NO:15), phosphorylation mimic (protein, listed as Rattus norvegicus) MHRLLAWDAACLPPPPAAFRPMEVANFYYEPDCLAYGAKAARAAPRAPAAEPAIGEHERAIDFSPYLEPLAPAAADFAAPAPAHHDFLSDLFADDYGAKPSKKPDDYGYVSLGRAGAKAAPPACFPPPPPAALKAEPGFEPADCKRADDAPAMAAGFPFALRAYLGYQATPSGSSGSLSTSSSSSPPGTPSPADAKAAPAACFAGPPAAPAKAKAKKAVDKLSDEYKMRRERNNIAVRKSRDKAKMRNLETQHKVLELTAENERLQKKVEQLSRELSTLRNLFKQLPEPLLASAGHC |  |  |  | rescued
C/EBPβ-HA-Glu^217: purified recombinant HA (hemagglutinin) tagged C/EBPβ-Glu^217 peptide (protein, left off: small tags and cut ends, purified recombinant HA (hemagglutinin) tagged C/EBPβ-Glu^217 peptide) MHRLLAWDAACLPPPPAAFRPMEVANFYYEPDCLAYGAKAARAAPRAPAAEPAIGEHERAIDFSPYLEPLAPAADFAAPAPAHHDFLSDLFADDYGAKPSKKPADYGYVSLGRAGAKAAPPACFPPPPPAALKAEPGFEPADCKRADDAPAMAAGFPFALRAYLGYQATPSGSSGSLSTSSSSSPPGTPSPADAKAAPAACFAGPPAAPAKAKAKKEVDKLSDEYKMRRERNNIAVRKSRDKAKMRNLETQHKVLELTAENERLQKKVEQLSRELSTLRNLFKQLPEPLLASAGHC |  | about 7 fold |  | 

Reference: patent US8129349B2, “Treatment of disease by inducing cell apoptosis” (The Regents of the University of California, priority 2000, dated 2012)
